The target in assay [1] is T1, human TSLP (human, UniProt Q969D9 29-159).
T1 construct: also called hTSLP; rhTSLP
Briefly: SPR (Biacore T200), antibody captured, cytokine analyte 30-0.153 nM.
Description: CMS chip was coated with human antibody capture kit to obtain 3000-5000 RU and the antibody, served as the capture, was injected at a flow rate of 10 ul/ml to obtain 250-350 RU.

The target in assay [2] is T2, recombinant cynomolgus monkey IL-13 (cynomolgus monkey, UniProt Q0PW92 21-132).
T2 construct: bought; also called rc-IL-13; cIL-13
Briefly: SPR.

The target of assay [3] is T1, human TSLP. Briefly: SPR.
Assay [4] addresses T3, recombinant human IL-13 (human, UniProt P35225 35-146).
T3 construct: also called rh-IL-13; hIL-13
Briefly: SPR.

Assay [5] concerns the target T4, hTSLP-His (human, UniProt Q969D9 29-159, limits assumed). Briefly: cell-based or functional assay.
In assay [6] the target is T1, human TSLP. The assay can be described thus: cell-based or functional assay.
Assay [7] has as its target T3, recombinant human IL-13. The assay can be described thus: cell-based or functional assay.
For assay [8], the target named is T5, cynomolgus monkey (cyno) TSLP (cynomolgus monkey, UniProt A0A7N9CAT7 29-159).
T5 construct: also called cTSLP; cynomolgus TSLP
T5 sequence (A0A7N9CAT7 entry or part of it): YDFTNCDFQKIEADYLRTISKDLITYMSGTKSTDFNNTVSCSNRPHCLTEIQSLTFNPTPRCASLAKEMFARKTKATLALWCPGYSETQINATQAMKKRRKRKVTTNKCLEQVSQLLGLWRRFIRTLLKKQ
Briefly: SPR.

The target in assay [9] is T3, recombinant human IL-13. The assay can be described thus: cell-based or functional assay. This is another data set of the same source.
Assay [10] has as its target T1, human TSLP. The assay can be described thus: SPR (ProteOn XPR36), antibody captured, hTSLP analyte 3.2-0.2 nM.
Assay [11] has as its target T3, recombinant human IL-13. Briefly: SPR, steady state, antibody captured, hIL-13 analyte.
Description: Subsequent to a cycle, the analyte and tested antibody were stripped from the chip and new tested Ab was loaded on the chip as described above. KD was determined at a steady state condition.
Assay [12] deals with T4, hTSLP-His. The assay can be described thus: cell-based or functional assay. This is another data set of the same source.
For assay [13], the target named is T4, hTSLP-His. Briefly: competition ELISA, 7 nM TSLP-His pre-incubated with antibody; competitor Tezepelumab coated.
Assay [14] deals with T3, recombinant human IL-13. The assay can be described thus: SPR (Biacore T200), antibody captured, hIL-13 as analyte 0.35-8.89 nM.
In assay [15] the target is T1, human TSLP. The assay can be described thus: SPR (Biacore T200), antibody captured, hTSLP as analyte 0.231-5.926 nM.
For assay [16], the target named is T5, cynomolgus monkey (cyno) TSLP. Briefly: SPR. The source holds these as a separate data set.
Assay [17] has as its target T2, recombinant cynomolgus monkey IL-13. Briefly: SPR. The source holds these as a separate data set.
Assay [18] has as its target T4, hTSLP-His. The assay can be described thus: competition ELISA: antibody titrated and pre-incubated with 7 nM TSLP-His, then on a plate coated with 33.001 (Tezepelumab), anti-His detection; row head on the sheet reads EC50, unit from the axis.
Assay [19] concerns the target T1, human TSLP. Briefly: SPR. This is another data set of the same source.
In assay [20] the target is T3, recombinant human IL-13. Briefly: SPR. This is another data set of the same source.
Assay [21] concerns the target T1, human TSLP. The assay can be described thus: SPR (Biacore), antibody captured on anti-human Fc chip, hTSLP as analyte, multi-cycle, 1:1 binding model.
Assay [22] addresses T1, human TSLP. The assay can be described thus: SPR. The source holds these as a separate data set.
The target in assay [23] is T3, recombinant human IL-13. Briefly: SPR. The source holds these as a separate data set.
For assay [24], the target named is T6, hIL-13-His (human, UniProt P35225 35-146).
T6 construct: bought; also called human IL-13 (Acro Biosystems IL3-H52H4); not shown: His tag
T6 sequence (P35225 35-146 limits assumed): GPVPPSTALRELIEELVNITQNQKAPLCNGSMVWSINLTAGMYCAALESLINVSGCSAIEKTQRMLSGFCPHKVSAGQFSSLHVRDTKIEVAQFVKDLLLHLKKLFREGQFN
Briefly: SPR (Biacore), antibody captured on anti-human Fc chip, hIL-13 as analyte, multi-cycle, 1:1 binding model.

Assay [25] has as its target T6, hIL-13-His. Briefly: cell-based or functional assay.
Assay [26] has as its target T6, hIL-13-His. The assay can be described thus: SPR (Biacore), antibody captured on anti-human Fc chip, hIL-13 as analyte, multi-cycle, 1:1 binding model. This is another data set of the same source.
Assay [27] deals with T1, human TSLP. The assay can be described thus: SPR (Biacore), antibody captured on anti-human Fc chip, hTSLP as analyte, multi-cycle, 1:1 binding model. The source holds these as a separate data set.

Read-outs that look alike come from different tables or passages of the source. Where only a bound is given, the exact number is not on record here.

T3 sequence (P35225 35-146 limits assumed): as above
T2 sequence (Q0PW92 entry or part of it): as the sequence (P35225 35-146 limits assumed) above, with G1S, R10K, M42V, S67N, H83R, L100V counted along it
T6 sequence (P35225 35-146 limits assumed): as the sequence (P35225 35-146 limits assumed) above

B1: BDG38.094 (antibody, V domains shown)
VH: QMQLVESGGGVVQPGRSLRLSCAASGFAFRTYGMHWVRQAPGKGLEWVAVIWDDGSNTHYADSVKGRFTITRDNSKNTLNLQMNSLRAEDTAVYYCVRAPQWYLTAEAFDLWGQGTMVTVSS
VL: SYVLTQPPSVSVAPGETASITCGGNLIGAYLVHWYQQKPGQAPLLVIYDDVDRPARIPERFSGSNSGNTATLTISRVEAGDEADYYCQVWDHNSNHMVFGGGTKLTVL
notes: IgG1
With B1, the equilibrium dissociation constant (Kd) was less than 1 pM in the assay with human TSLP [1]; 270 pM in assay [2]; 0.0127 pM in the assay with human TSLP [3]; 13.8 pM with recombinant human IL-13 [4]; 2.75 pM in assay [8]. Moreover, the koff in assay [2] was 0.006 s⁻¹; with human TSLP [3], 1.82e-07 s⁻¹; with recombinant human IL-13 [4] it was 9.36e-05 s⁻¹; in [8], 3.18e-05 s⁻¹. Further, the kon in assay [2] came out at 2.22e+07 M⁻¹ s⁻¹; with human TSLP [3], 1.44e+07 M⁻¹ s⁻¹; with recombinant human IL-13 [4], 6.77e+06 M⁻¹ s⁻¹; in assay [8] it was 1.16e+07 M⁻¹ s⁻¹. Moreover, the “IC50 [pM], STAT5 phosphorylation inhibition in MUTZ5 cells” value with hTSLP-His [5] was found to be 27.2 pM. The “IC50 TARC” value in the assay with human TSLP [6] came to 356 pM. The “IC50 CD23” value in the assay with recombinant human IL-13 [7] is 172 pM. The “HEK-IL-13 [nM] (IC50, STAT6 reporter)” value with recombinant human IL-13 [9] worked out at 0.0487 nM.

B2: BDG33.004 (antibody, V domains shown)
VH: QMQLVESGGGVVQPGRSLRLSCAASGFTFRTYGMHWVRQAPGKGLEWVAVIWYDGSNKHYADSVKGRFTITRDNSKNTLNLQMNSLRAEDTAVYYCARAPQWMLVAEAFDLWGQGTMVTVSS
VL: SYVLTQPPSVSVAPGQTARITCGGNLIGSKLVHWYQQKPGQAPVLVVYDDSDRPSRIPERFSGSNSGNTATLTISRVEAGDEADYYCQVWDSSSDHVVFGGGTKLTVL
notes: human IgG1, lambda light chain; also called BGD33.004; Clone C6 (as IgG1)
In the assay with human TSLP [10], B2 registered a dissociation constant Kd of 3330 pM, a koff of 0.00114 s⁻¹ and a kon of 344000 M⁻¹ s⁻¹. In addition, the Kd with recombinant human IL-13 [11] was 57400 pM.

B3: BDG38.079 (antibody, V domains shown)
VH: QMQLVESGGGVVQPGRSLRLSCAASGFAFRTYGMHWVRQAPGKGLEWVAVIWYDGSNTHYADSVKGRFTITRDNSKNTLNLQMNSLRAEDTAVYYCVRAPQWYLTAEAFDLWGQGTMVTVSS
VL: SYVLTQPPSVSVAPGETATITCGGNMIGGYLVHWYQQKPGQAPLLVIYDDVDRPDRIPERFSGSNSGNTATLTISRVEAGDEADYYCQVWDHDSNTMVFGGGTKLTVL
B3: the “IC50, pSTAT5 in MUTZ-5 cell line” value in the assay with hTSLP-His [12] was roughly 13 pM. Also, the IC50 in the assay with hTSLP-His [13] and in the assay with hTSLP-His [18] was 3630 pM each time. For the same molecule, the Kd with recombinant human IL-13 [14] was 31.7 pM; in the assay with human TSLP [15] it was 2.21 pM; in assay [16], 3.97 pM; in assay [17] it was 901 pM; with human TSLP [19] it was 2.21 pM; in the assay with recombinant human IL-13 [20] it was 31.7 pM. Also, the koff was determined as 0.000385 s⁻¹ with recombinant human IL-13 [14]; 3.27e-05 s⁻¹ with human TSLP [15]; 4.08e-05 s⁻¹ in [16]; 0.0141 s⁻¹ in assay [17]; 3.27e-05 s⁻¹ with human TSLP [19]; 0.000385 s⁻¹ with recombinant human IL-13 [20]. Besides, the kon is 1.22e+07 M⁻¹ s⁻¹ with recombinant human IL-13 [14]; 1.48e+07 M⁻¹ s⁻¹ with human TSLP [15]; 1.03e+07 M⁻¹ s⁻¹ in assay [16]; 1.56e+07 M⁻¹ s⁻¹ in assay [17]; 1.48e+07 M⁻¹ s⁻¹ with human TSLP [19]; 1.22e+07 M⁻¹ s⁻¹ with recombinant human IL-13 [20]. Besides, the “IC50 [pM], STAT5 phosphorylation inhibition in MUTZ5 cells” value with hTSLP-His [5] is 21.8 pM. The “IC50 TARC” value with human TSLP [6] turned out to be 1960 pM. Moreover, the “IC50 CD23” value in the assay with recombinant human IL-13 [7] is 71.8 pM. Also, in the assay with recombinant human IL-13 [9], the “HEK-IL-13 [nM] (IC50, STAT6 reporter)” value came to 0.0253 nM.

B4: BDG33.003 (antibody, V domains shown)
VH: QMQLVESGGGVVQPGRSLRLSCAASGFTFRTYGMHWVRQAPGKGLEWVAVIWYDGSNKHYADSVKGRFTITRDNSKNTLNLQMNSLRAEDTAVYYCARAPQWELTAEAFDIWGQGTMVTVSS
VL: SYVLTQPPSVSVAPGQTARITCGGNLIGSKLVHWYQQKPGQAPVLVVYDDSDRPSLIPERFSGSNSGNTATLTISRVEAGDEADYYCQVWDSSSDGVVFGGGTKLTVL
notes: also called BGD33.003; Clone C2 (as IgG1)
In the assay with human TSLP [10], B4 gave a Kd of 4500 pM, a koff of 0.00129 s⁻¹ and an association rate constant (kon) of 287000 M⁻¹ s⁻¹. For the same molecule, the Kd in the assay with recombinant human IL-13 [11] amounted to 21600 pM.

B5: BDG38.138 (antibody, human IgG1, lambda, L234A L235A)
heavy: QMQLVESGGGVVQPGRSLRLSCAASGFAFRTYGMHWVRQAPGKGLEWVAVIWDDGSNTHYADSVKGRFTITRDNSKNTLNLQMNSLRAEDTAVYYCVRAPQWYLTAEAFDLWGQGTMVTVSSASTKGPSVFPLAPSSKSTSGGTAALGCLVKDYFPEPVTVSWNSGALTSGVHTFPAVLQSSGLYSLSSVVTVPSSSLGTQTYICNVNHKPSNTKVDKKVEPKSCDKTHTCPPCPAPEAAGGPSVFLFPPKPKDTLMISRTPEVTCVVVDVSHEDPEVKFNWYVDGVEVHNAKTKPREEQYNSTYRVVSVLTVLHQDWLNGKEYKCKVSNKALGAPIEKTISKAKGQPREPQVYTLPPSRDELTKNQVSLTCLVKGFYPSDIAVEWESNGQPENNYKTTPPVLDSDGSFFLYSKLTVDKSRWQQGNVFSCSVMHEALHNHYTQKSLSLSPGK
light: SYVLTQPPSVSVAPGETASITCGGNMIGGYLVHWYQQKPGQAPVLVIYDDVDRPSRIPERFSGSNSGNTATLTISRVEAGDEADYYCQVWDHNSNHMVFGGGTKLTVLGQPKAAPSVTLFPPSSEELQANKATLVCLISDFYPGAVTVAWKADSSPVKAGVETTTPSKQSNNKYAASSYLSLTPEQWKSHRSYSCQVTHEGSTVEKTVAPTECS
notes: human IgG1 L234A/L235A/P329G (LALAPG); also called hIgG1 LALAPG; hIgG1 LALA-PG
On to B5, for which the Kd in assay [2] is 849 pM; in the assay with human TSLP [21], 6.61 pM; with human TSLP [22], 2.85 pM; in the assay with recombinant human IL-13 [23], 13.4 pM; in the assay with hIL-13-His [24] it was 52.3 pM; in [8] it was 1.35 pM. In addition, the koff was 0.00653 s⁻¹ in assay [2]; 0.000212 s⁻¹ in the assay with human TSLP [21]; 4.28e-05 s⁻¹ with human TSLP [22]; 0.00016 s⁻¹ with recombinant human IL-13 [23]; 0.000455 s⁻¹ with hIL-13-His [24]; 1.85e-05 s⁻¹ in assay [8]. For the same molecule, the on-rate (kon) was determined as 7.7e+06 M⁻¹ s⁻¹ in [2]; 3.2e+07 M⁻¹ s⁻¹ with human TSLP [21]; 1.5e+07 M⁻¹ s⁻¹ with human TSLP [22]; 1.19e+07 M⁻¹ s⁻¹ with recombinant human IL-13 [23]; 8.7e+06 M⁻¹ s⁻¹ with hIL-13-His [24]; 1.37e+07 M⁻¹ s⁻¹ in assay [8]. Also, in the assay with hTSLP-His [5], the “IC50 [pM], STAT5 phosphorylation inhibition in MUTZ5 cells” value turned out to be 45.2 pM. Further, the “IC50 TARC” value with human TSLP [6] is 2360 pM. Further, in the assay with recombinant human IL-13 [7], the “IC50 CD23” value came to 164 pM. In addition, in the assay with recombinant human IL-13 [9], the “HEK-IL-13 [nM] (IC50, STAT6 reporter)” value was 0.0286 nM.

B6: BDG38.145 (antibody, human IgG1, lambda, L234A L235A)
heavy: not shown
light: SYVLTQPPSVSVAPGETASITCGGNMIGGYLVHWYQQKPGQAPVLVIYDDVDRPSRIPERFSGSNSGNTATLTISRVEAGDEADYYCQVWDHNSNHMVFGGGTKLTVLGQPKAAPSVTLFPPSSEELQANKATLVCLISDFYPGAVTVAWKADSSPVKAGVETTTPSKQSNNKYAASSYLSLTPEQWKSHRSYSCQVTHEGSTVEKTVAPTECS
notes: human IgG1 L234A/L235A (LALA); same VH/VL as BDG38.138; also called BSG38.145; hIgG1 LALA
In the case of B6, the “IC50, CD23 expression on monocytes (hPBMC, 0.7 nM IL-13)” value in the assay with hIL-13-His [25] came out at 380 pM. Also, in the assay with hIL-13-His [26], binding was characterised by a dissociation constant (Kd) of 87.9 pM, the off-rate constant (koff) worked out at 0.000323 s⁻¹ and the association rate constant (kon) is 3.67e+06 M⁻¹ s⁻¹. In the assay with human TSLP [27], the affinity, expressed as Kd, was 7.79 pM; the koff was found to be 0.0002 s⁻¹; the kon turned out to be 2.57e+07 M⁻¹ s⁻¹.

These data come from patent publication US20240059769A1 (BIOLOJIC DESIGN, published 2024).
